Results taken from article PMC7808939.

Legend:
Fbxl8 [1] = biological target: Fbxl8 (UniProt Q8CIG9); assay: co-immunoprecipitation; settings: reference: wild type cyclin D3; sites T283
Fbxl8 [2] = biological target: Fbxl8 (UniProt Q8CIG9); assay: anti-HA co-IP, blot for cyclin D3; settings: reference: wild type Flag-cyclin D3; sites T283

Row | Substance | binding against the reference (Fbxl8 [1]) | binding against the reference (Fbxl8 [2])
1 | cyclin D3 (from UniProt P30282) T283A | lost | 
2 | cyclin D3 (from UniProt P30282) Flag-cyclin D3 T283A |  | weaker
